Experimental data: paper PMC5964235, “rbFOX1/MBNL1 competition for CCUG RNA repeats binding contributes to myotonic dystrophy type 1/type 2 differences”

Tests used:
GST-rbFOX1 = target: T1, GST-rbFOX1 (UniProt Q9NWB1); assay: EMSA; conditions: apparent KD; EMSA: 50 mM Tris-HCl pH 7.0, 75 mM NaCl, 37.5 mM KCl, 0.75 mM MgCl2, 5.25 mM DTT, 0.1 mg/mL BSA, 0.1 mg/mL bulk tRNA, 0.4 U/uL RNAsin, 20 min on ice, 10 pM …
T1 sequence: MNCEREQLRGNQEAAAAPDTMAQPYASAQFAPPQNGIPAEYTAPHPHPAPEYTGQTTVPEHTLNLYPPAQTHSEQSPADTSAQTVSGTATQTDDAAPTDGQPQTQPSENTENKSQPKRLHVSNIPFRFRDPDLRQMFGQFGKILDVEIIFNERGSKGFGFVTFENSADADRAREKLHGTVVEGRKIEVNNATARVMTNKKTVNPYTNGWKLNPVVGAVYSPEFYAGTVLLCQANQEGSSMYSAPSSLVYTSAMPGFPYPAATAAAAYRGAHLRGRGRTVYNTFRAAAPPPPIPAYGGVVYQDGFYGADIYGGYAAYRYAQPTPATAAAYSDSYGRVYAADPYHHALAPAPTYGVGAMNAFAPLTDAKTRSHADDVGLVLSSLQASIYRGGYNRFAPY

rbFOX1 RRM = target: T2, rbFOX1 RRM (UniProt Q9NWB1 117-193); assay: NMR; 15N-1H HSQC; EMSA: 50 mM Tris-HCl pH 7.0, 75 mM NaCl, 37.5 mM KCl, 0.75 mM MgCl2, 5.25 mM DTT, 0.1 mg/mL BSA, 0.1 mg/mL bulk tRNA, 0.4 U/uL RNAsin, 20 min on ice, 10 pM RNA; gel at 4 C; conditions: protein: recombinant
T2 sequence: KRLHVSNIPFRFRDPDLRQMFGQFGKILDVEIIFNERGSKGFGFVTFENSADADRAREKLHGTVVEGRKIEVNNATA

Molecule: GGGAGACCCAAGCUGGCUAGCGUUUAAACUUAAGCUUCCUGCCUGCCUGCCUGCCUGCCUGCCUGCCUGCCUGCCUGCCUGCCUGCCUGCCUGCCUGCCUGCCUGCCUGCCUGCCUGCCUGCCUGCCUGCCUGCCUGCCUGCCUGCCUGCCUGCCUGCCUGCCUGCCUGCCUGCCUGCCUGCCUGCCUGCCUGCCUGCCUGCCUGCCUGCCUGCCUGCCUGCCUGCCUGCCUGCCUGCCUGCCUGCCUGCCUGCCUGCCUGCCUGCCUGCCUGCCUGCCUGCCUGCCUGCCUGCCUGCCUGCCUGCCUGCCUGCCUGCCUGCCUGCCUGCCUGCCUGCCUGCCUGCCUGCCUGCCUGCCUGCCUGCCUGCCUGCCUGCCUGCCUGCCUGCCUGCCUGCCUGCCUGCCUGCCUGCCUGCCUGCCUGCCUGCCUGCCUGG [(CCUG)100]
- Kd (GST-rbFOX1): 3.2 nM

Molecule: GGGAGACCCAAGCUGGCUAGCGUUUAAACUUAAGCUUCCUGCCUGCCUGCCUGCCUGCCUGCCUGCCUGCCUGCCUGCCUGCCUGCCUGCCUGCCUGCCUGCCUGCCUGCCUGCCUGCCUGCCUGCCUGCCUGCCUGCCUGCCUGCCUGCCUGCCUGG [(CCUG)30]
- Kd (GST-rbFOX1): 6.3 nM

Molecule: GGGAGACCCAAGCUGGCUAGCGUUUAAACUUAAGCUUCCUGCCUGCCUGCCUGCCUGCCUGCCUGCCUGCCUGCCUGG [(CCUG)10]
- Kd (GST-rbFOX1): 9.7 nM

B1: UGCCUGC (NMR) (ssRNA)
RNA: UGCCUGC
- binding result (rbFOX1 RRM): binds

B2: UGCAUGU (NMR) (ssRNA)
RNA: UGCAUGU
- binding result (rbFOX1 RRM): binds
